Results published in article PMC6011117, “Comparative Evaluation of Radioiodine and Technetium-Labeled DARPin 9_29 for Radionuclide Molecular Imaging of HER2 Expression in Malignant Tumors” (Contrast Media & Molecular Imaging, 2018).

B1: [125I]I-DARPin 9_29 (designed binder)
chain: MDLGKKLLEAARAGQDDEVRILMANGADVNAHDFYGITPLHLAANFGHLEIVEVLLKHGADVNAFDYDNTPLHLAADAGHLEIVEVLLKYGADVNASDRDGHTPLHLAAREGHLEIVEVLLKNGADVNAQDKFGKTAFDISIDNGNEDLAEILQKLAAALE
modifications: iodine-125 label attached to tyrosine (direct radioiodination)
notes: designed ankyrin repeat protein 9_29 against HER2; also called radioiodinated DARPin 9_29; source: E. coli BL21(DE3), purified (HisTrap HP, MonoQ); directly radioiodinated with chloramine T, purified on NAP-5; not shown: His6, C-terminal, kept
B2: [99mTc]Tc(CO)3-DARPin 9_29 (designed binder)
chain: B1 chain
modifications: [99mTc]Tc(CO)3 chelated by the C-terminal hexahistidine tag
notes: designed ankyrin repeat protein 9_29 against HER2; also called 99mTc(CO)3-DARPin 9_29; [99mTc]Tc-DARPin 9_29; source: E. coli BL21(DE3), purified (HisTrap HP, MonoQ); labelled with technetium-99m tricarbonyl, purified on NAP-5; not shown: His6, C-terminal, kept

Molecular target: T1, human epidermal growth factor receptor 2 (HER2) (human (endogenous in SKOV-3, BT474, …, UniProt P04626 23-1255))
T1 construct: human epidermal growth factor receptor 2 (HER2), endogenous on the cell lines SKOV-3, BT474 and DU145; also called HER2 receptor; source: endogenous, on living SKOV-3, BT474 and DU145 cells
Experiment: radioligand binding; LigandTracer, real-time association and dissociation on living SKOV-3 cells at room temperature; radioconjugate at 1, 4 and 8 nM; TraceDrawer fit with a 1:2 binding model
Conditions: one partner purified

Binder	KD of the strongest interaction (1:2 binding model)	KD of the weaker interaction (1:2 binding model)
B1	0.362 ± 0.13 nM	7.7 ± 2.8 nM
B2	0.439 ± 0.156 nM	9.1 ± 2.7 nM
